# Results reported in patent US20200062856A1 (XDCEXPLORER SHANGHAI, published 2020).
# Tests used:
# [1] = biological target: human TPBG protein, full-length, on the cell surface (human) (UniProt Q13641); assay: FACS, HEK293 clone 293F-hTPBG 4B9
# [2] = biological target: human TPBG protein, full-length, on the cell surface (human) (UniProt Q13641); assay: FACS, HEK293 clone 293F-hTPBG 5G11
# [3] = biological target: human TPBG protein, full-length, on the cell surface (human) (UniProt Q13641); assay: FACS, HEK293 clone 293F-hTPBG 5E5
# [4] = biological target: human TPBG protein, full-length, on the cell surface (human) (UniProt Q13641); assay: FACS, CHOk1-hTPBG 3A2F1 cells
# [5] = biological target: T1, human TPBG-hFc protein (human, UniProt Q13641 32-355); assay: ELISA, coated human TPBG-hFc 1.0 ug/mL; control IgG at 2 nM
# T1 construct: range 32-355; Expressed in HEK293 cells, purified on protein A; also called immunogen A; hFc tagged TPBG protein; not shown: human IgG Fc fragment of the pCpC vector
# T1 sequence (looked up): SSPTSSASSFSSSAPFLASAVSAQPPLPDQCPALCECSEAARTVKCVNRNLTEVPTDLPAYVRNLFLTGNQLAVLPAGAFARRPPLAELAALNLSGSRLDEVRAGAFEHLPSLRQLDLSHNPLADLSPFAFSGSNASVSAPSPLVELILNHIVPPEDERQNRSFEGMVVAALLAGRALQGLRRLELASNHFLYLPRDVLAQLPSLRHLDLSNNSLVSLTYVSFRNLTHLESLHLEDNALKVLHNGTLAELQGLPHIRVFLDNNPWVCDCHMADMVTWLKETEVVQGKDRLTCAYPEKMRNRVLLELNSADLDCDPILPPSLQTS
# [6] = biological target: human TPBG protein, full-length, on the cell surface (human) (UniProt Q13641); assay: FACS, HEK293 clone 293F-hTPBG 4E1
# [7] = biological target: human TPBG protein, full-length, on the cell surface (human) (UniProt Q13641); assay: FACS, HEK293 clone 293F-hTPBG 4A8
# [8] = biological target: cynomolgus TPBG protein, full-length, on the cell surface (cynomolgus) (UniProt Q4R8Y9); assay: FACS, CHOk1-cTPBG 3F13G4 cells
# [9] = biological target: human TPBG protein, full-length, on the cell surface (human) (UniProt Q13641); assay: FACS, HEK293 clone 293F-hTPBG 4F9
# [10] = biological target: T1, human TPBG-hFc protein; assay: ELISA, coated human TPBG-hFc 1.0 ug/mL; control IgG at 0.02 nM
# [11] = biological target: human TPBG protein, full-length, on the cell surface (human) (UniProt Q13641); assay: FACS, HEK293 clone 293F-hTPBG 4C5
# [12] = biological target: human TPBG protein, full-length, on the cell surface (human) (UniProt Q13641); assay: FACS, HEK293 clone 293F-hTPBG 5A11
# [13] = biological target: human TPBG protein, full-length, on the cell surface (human) (UniProt Q13641); assay: FACS, HEK293 clone 293F-hTPBG 4G1
# [14] = biological target: human TPBG protein, full-length, on the cell surface (human) (UniProt Q13641); assay: FACS, HEK293 clone 293F-hTPBG 5H6
# [15] = biological target: mouse TPBG protein, full-length, on the cell surface (mouse) (UniProt Q9Z0L0); assay: FACS, CHOk1-mTPBG 3A3 cells
# [16] = biological target: human TPBG protein, full-length, on the cell surface (human) (UniProt Q13641); assay: FACS, HEK293 clone 293F-hTPBG 5A9
# [17] = biological target: human TPBG protein, full-length, on the cell surface (human) (UniProt Q13641); assay: FACS, HEK293 clone 293F-hTPBG 4C3
# [18] = biological target: human TPBG protein, full-length, on the cell surface (human) (UniProt Q13641); assay: FACS, HEK293 clone 293F-hTPBG 4A9
# [19] = biological target: T1, human TPBG-hFc protein; assay: ELISA, coated human TPBG-hFc 1.0 ug/mL; control IgG at 0.2 nM
# [20] = biological target: human TPBG protein, full-length, on the cell surface (human) (UniProt Q13641); assay: FACS, HEK293 clone 293F-hTPBG 4E1 (NO 8)
# [21] = biological target: T1, human TPBG-hFc protein; assay: ELISA, coated human TPBG-hFc 1.0 ug/mL; control IgG at 0.0002 nM
# [22] = biological target: human TPBG protein, full-length, on the cell surface (human) (UniProt Q13641); assay: FACS, HEK293 clone 293F-hTPBG 5C12
# [23] = biological target: T1, human TPBG-hFc protein; assay: ELISA, coated human TPBG-hFc 1.0 ug/mL; control IgG at 20 nM
# [24] = biological target: human TPBG protein, full-length, on the cell surface (human) (UniProt Q13641); assay: FACS, HEK293 clone 293F-hTPBG 5G8
# [25] = biological target: human TPBG protein, full-length, on the cell surface (human) (UniProt Q13641); assay: FACS, HEK293 clone 293F-hTPBG 4H12
# [26] = biological target: human TPBG protein, full-length, on the cell surface (human) (UniProt Q13641); assay: FACS, HEK293 clone 293F-hTPBG 5E6
# [27] = biological target: human TPBG protein, full-length, on the cell surface (human) (UniProt Q13641); assay: FACS, HEK293 clone 293F-hTPBG 4G6
# [28] = biological target: T1, human TPBG-hFc protein; assay: ELISA, coated human TPBG-hFc 1.0 ug/mL; control IgG at 0.002 nM
# [29] = biological target: human TPBG protein, full-length, on the cell surface (human) (UniProt Q13641); assay: FACS, HEK293 clone 293F-hTPBG 5D4
# [30] = biological target: T1, human TPBG-hFc protein; assay: ELISA, coated human TPBG-hFc 1.0 ug/mL; control IgG at 200 nM
substance,measurement,setting,value
mouse IgG (isotype control) (antibody),Cellular MFI,[1],6.3 MFI
same,Cellular MFI,[2],4.1 MFI
same,Cellular MFI,[3],5.6 MFI
same,Cellular MFI,[4],3.24 MFI
same,OD450 nm,[5],0.1 OD450 nm
same,Cellular MFI,[6],5.2 MFI
same,Cellular MFI,[7],3.1 MFI
same,Cellular MFI,[8],2.66 MFI
same,Cellular MFI,[9],3.9 MFI
same,OD450 nm,[10],0.1 OD450 nm
same,Cellular MFI,[11],5.6 MFI
same,Cellular MFI,[12],4.6 MFI
same,Cellular MFI,[13],4 MFI
same,Cellular MFI,[14],3 MFI
same,Cellular MFI,[15],2.38 MFI
same,Cellular MFI,[16],5 MFI
same,Cellular MFI,[17],3.2 MFI
same,Cellular MFI,[18],6.3 MFI
same,OD450 nm,[19],0.11 OD450 nm
same,Cellular MFI,[20],4.8 MFI
same,OD450 nm,[21],0.11 OD450 nm
same,Cellular MFI,[22],3.7 MFI
same,OD450 nm,[23],0.11 OD450 nm
same,Cellular MFI,[24],6 MFI
same,Cellular MFI,[25],4 MFI
same,Cellular MFI,[26],2.6 MFI
same,Cellular MFI,[27],3.1 MFI
same,OD450 nm,[28],0.1 OD450 nm
same,Cellular MFI,[29],3 MFI
same,OD450 nm,[30],0.24 OD450 nm
